# From article PMC8790125, “Molecular Mechanism of SARS-CoVs Orf6 Targeting the Rae1–Nup98 Complex to Compete With mRNA Nuclear Export” (Frontiers in Molecular Biosciences, 2021)
# B1: SARS-CoV-2 Orf6CTT (21-mer peptide, residues 41–61 of SARS-CoV-2 Orf6) (peptide)
# peptide: SKSLTENKYSQLDEEQPMEID
# notes: also called SARS-CoV-2 Orf6 peptide
# Target: T1, Rae1–Nup98_(GLEBS) complex (UniProt P78406 1-368; P52948 157-213)
# T1 construct: Deca-histidine tags are called non-cleavable; also called Rae1–Nup98 complex; Rae1–Nup98 heterodimer; not shown: His10, C-terminal, kept; His10, N-terminal, kept
# Assay: ITC
# Settings: both partners purified
# T1 sequence (P78406 whole entry, chain 1 of 2): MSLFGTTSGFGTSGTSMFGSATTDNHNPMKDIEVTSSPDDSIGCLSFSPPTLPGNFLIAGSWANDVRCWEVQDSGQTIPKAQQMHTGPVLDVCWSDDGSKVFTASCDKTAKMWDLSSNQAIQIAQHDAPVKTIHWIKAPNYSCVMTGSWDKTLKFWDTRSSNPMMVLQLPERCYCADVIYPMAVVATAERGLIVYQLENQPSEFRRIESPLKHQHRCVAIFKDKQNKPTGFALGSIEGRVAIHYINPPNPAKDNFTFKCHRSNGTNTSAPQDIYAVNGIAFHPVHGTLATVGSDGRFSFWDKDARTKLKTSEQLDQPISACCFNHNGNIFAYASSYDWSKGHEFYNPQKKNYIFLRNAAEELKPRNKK
# T1 sequence (P52948 157-213, chain 2 of 2): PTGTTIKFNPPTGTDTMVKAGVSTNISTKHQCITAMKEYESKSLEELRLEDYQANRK
binder,measurement,value
B1,Kd,142 nM
same,stoichiometry N,1
